In patent publication US20240336686A1:
Numbering of substitutions follows the chain as printed.

B1: Anti-SIRPα antibody C25 (antibody, V domains shown)
VH: EVQLQQSGAELVKPGASVKLSCTASGFNIKDYYMHWVKQRTEQGLEWIGRIDPEDGETKYAPKFQGKATITADTSSNTAYLQLSSLTSEDTAVYYCDRGLAYWGQGTLVTVSA
VL: QIVLTQSPAIMSASPGEKVTLTCSASSSVSSSYLYWYQQKPGSSPKLWIYSTSNLASGVPARFSGSGSGTSYSLTISSMEAEDAASYFCHQWSSYPYTFGGGTKLEIK
B2: Anti-PDL1/SIRPα bispecific antibody ES019-026 (bispecific antibody, not shown: small tags and cut ends; a dimerising Fc or GST)
light (part 1 of 2): EVQVVESGGGLVQSGGSLKLSCAGSGFTESAGFMVWHRQVPGKERELVALIATPSGSTNYADSVKGRFTISRDNGKNTVYLQMNSLKPEDTAVYYCNIRGYWGQGTLVTVSS
light (part 2 of 2): B1 VL
heavy: B1 VH
B3: Anti-PDL1/SIRPα bispecific antibody ES019-024 (bispecific antibody, not shown: a dimerising Fc or GST)
light: B1 VL
heavy (part 1 of 2): B1 VH
heavy (part 2 of 2): B2 light (part 1 of 2)
B4: Anti-Claudin18.2/SIRPα bispecific antibody ES028-001 (bispecific antibody, not shown: a dimerising Fc or GST)
light (part 1 of 2): DIVMTQSPDSLAVSLGERATINCKSSQSLLNAGNQKNYLTWYQQKPGQPPKLLIYWSSTRESGVPDRFSGSGSGTDFTLTISSLQAEDVAVYHCQNNYYYPLTFGGGTKLEIK
light (part 2 of 2): GGGGSGGGGSGGGGSQIVLTQSPAIMSASPGEKVTLTCSASSSVSSSYLYWYQQKPGSSPKLWIYSTSNLASGVPARFSGSGSGTSYSLTISSMEAEDAASYFCHQWSSYPYTFGGGTKLEIKGGGGSGGGGSGGGGSGGGGSEVQLQQSGAELVKPGASVKLSCTASGFNIKDYYMHWVKQRTEQGLEWIGRIDPEDGETKYAPKFQGKATITADTSSNTAYLQLSSLTSEDTAVYYCDRGLAYWGQGTLVTVSA
heavy: QVQLVQSGAEVKKPGASVKVSCKASGYTFTNWVHWVRQAPGQGLEWMGEINPTNARSNYNEKFKKRVTMTRDTSTSTVYMELSSLRSEDTAVYYCARIYYGNSFAHWGQGTLVTVSS
B5: Anti-Claudin18.2/SIRPα bispecific antibody ES028-005 (bispecific antibody, not shown: a dimerising Fc or GST)
light: B4 light (part 1 of 2)
heavy (part 1 of 2): B4 heavy
heavy (part 2 of 2): B4 light (part 2 of 2)
B6: Anti-Claudin18.2/SIRPα bispecific antibody ES028-009 (bispecific antibody, not shown: a dimerising Fc or GST)
light (part 1 of 2): B1 VL
light (part 2 of 2): GGGGSGGGGSGGGGSDIVMTQSPDSLAVSLGERATINCKSSQSLLNAGNQKNYLTWYQQKPGQPPKLLIYWSSTRESGVPDRFSGSGSGTDFTLTISSLQAEDVAVYHCQNNYYYPLTFGGGTKLEIKGGGGSGGGGSGGGGSGGGGSQVQLVQSGAEVKKPGASVKVSCKASGYTFTNWVHWVRQAPGQGLEWMGEINPTNARSNYNEKFKKRVTMTRDTSTSTVYMELSSLRSEDTAVYYCARIYYGNSFAHWGQGTLVTVSS
heavy: B1 VH
B7: Anti-Claudin18.2/SIRPα bispecific antibody ES028-013 (bispecific antibody, not shown: a dimerising Fc or GST)
light: B1 VL
heavy (part 1 of 2): B1 VH
heavy (part 2 of 2): B6 light (part 2 of 2)
B8: Anti-Claudin18.2 antibody hu28.H1L2 (antibody, V domains shown)
VH: B4 heavy
VL: B4 light (part 1 of 2)
B9: Humanized anti-SIRPα antibody hu025.021 (antibody, V domains shown)
VH: EVQLVQSGAEVKKPGATVKISCKVSGFNIKDYYMHWVQQAPGKGLEWIGRIDPEDAETKYAPKFQGRVTITADTSTNTAYMELSSLRSEDTAVYYCDRGLAYWGQGTLVTVSS
VL: EIVLTQSPATLSLSPGERATLSCSASSSVSSSYLYWYQQKPGQAPKLWIYSTSNLASGIPARFSGSGSGTDYTLTISSLEPEDFAVYYCHQWSSYPYTFGQGTKLEIK
B10: Humanized anti-SIRPα antibody hu025.060 (antibody, V domains shown)
VH: B9 VH with V24A
VL: B9 VL with Y72F
B11: Humanized anti-SIRPα antibody hu025.023 (antibody, V domains shown)
VH: B9 VH
VL: B9 VL with Y72F
B12: Humanized anti-SIRPα antibody hu025.059 (antibody, V domains shown)
VH: B9 VH with V24A
VL: B9 VL

What follows are binders tested against human SIRPα on CHO-K1 cells (human) (UniProt P78324) (assay: FACS, CHO-K1 cells overexpressing human SIRPα, anti-human Fc-PE, MFI).

EC50 (read off the curve) [nM] | Binder
0.3 | B1
0.4 | B2
0.3 | B3

Target: human SIRPα on CHO-K1 cells (human) (UniProt P78324)
Assay: as above
Remark: another data set of the same source

EC50 (read off the curve) [nM] | Binder
0.8 | B4
0.9 | B5
0.5 | B1
0.5 | B6
0.5 | B7

Each binder was assayed against human SIRPα protein (Octet assay) (human) (UniProt P78324) (assay: Octet; antibody on sensor, SIRPα protein in solution).

Kd [nM] | koff [s⁻¹] | kon [M⁻¹ s⁻¹] | Binder
1.51 | 0.000271 | 179000 | B4
1.41 | 0.00047 | 334000 | B5
2.12 | 0.00109 | 512000 | B1
2.44 | 0.00133 | 544000 | B6

The binders below were run against human Claudin18.2 on Raji cells (human) (UniProt P56856) (assay: FACS, Raji cells overexpressing human Claudin18.2, anti-human Fc-PE, MFI).

EC50 (read off the curve) [nM] | Binder
2 | B4
1 | B5
1 | B8

These binders were tested against Human SIRPα v1 (human) (UniProt P78324) (assay: SPR (Biacore), 1:1 binding model).
Sequence of Human SIRPα v1 (human) (P78324 31-370): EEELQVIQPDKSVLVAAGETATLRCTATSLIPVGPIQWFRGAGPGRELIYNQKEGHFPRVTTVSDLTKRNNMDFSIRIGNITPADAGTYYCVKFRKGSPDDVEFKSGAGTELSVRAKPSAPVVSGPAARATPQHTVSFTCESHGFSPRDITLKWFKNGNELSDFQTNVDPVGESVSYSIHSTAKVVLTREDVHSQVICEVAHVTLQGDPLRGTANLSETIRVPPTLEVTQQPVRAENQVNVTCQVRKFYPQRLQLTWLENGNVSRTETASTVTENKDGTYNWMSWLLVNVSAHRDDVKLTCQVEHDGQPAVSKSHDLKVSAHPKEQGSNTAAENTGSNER

Kd [nM] | koff [s⁻¹] | kon [M⁻¹ s⁻¹] | Binder
1.53 | 0.000924 | 602000 | B1
3.05 | 0.00183 | 599000 | B9
1.99 | 0.00111 | 560000 | B10
2.67 | 0.00172 | 643000 | B11
2.29 | 0.00123 | 536000 | B12
